Source: patent US20120115739A1

Tests used:
[1] = target: pepIII peptide (PepIII portion of EGFRvIII), 13-mer …; experiment: eluted supernatant of unblocked sample rebound to pepIII-conjugated beads, flow cytometry
[2] = target: pepIII peptide (PepIII portion of EGFRvIII), 13-mer …; experiment: eluted supernatant of sample blocked with free pepIII in the first round of binding, rebound to pepIII-conjugated beads, flow cytometry
[3] = target: pepIII peptide (PepIII portion of EGFRvIII), 13-mer …; experiment: eluted supernatant mixed with pepIII-conjugated beads and free pepIII competitor in the second round, flow cytometry

antibody level (FIG. 2, fluorescence) [1]: 31.2
antibody level (FIG. 2, fluorescence) [2]: 2.21
antibody level (FIG. 2, fluorescence) [3]: 2.57
Substance: L8A4 anti-pepIII monoclonal antibody
